Test results published in publication PMC11615899 (The Journal of Biological Chemistry, 2024).

Target: the molecule itself
Assay: SEC

B1: F-BAR_(REMIND): the [70–347] region of TgREMIND with an N-terminal His-tag and five cysteines replaced (domain or fragment, Toxoplasma gondii, UniProt S8GLL7 70-347, looked up)
chain: APANATAENAFSFKEDLTSDWSLAVSRVDSGRTLLERLRAALLLRANAAVEQASKMESLVQTFVATNLESKTVMSAVNALRLEAVHQADHAREFAEAIRRDVVEGTLTNTIHNHYLVLQQIKADGSEAQKELTLATVDHQKAMHRYLRASKEAAAAAVKAQAAEGEAPNVRTELALSAIRRAVEAKAAEDEHRESVARLNAAAQANERKMAIILQSLQDMDEKRMLSFRDALRKAMVYQAAYLRNVQYDLEQTIKTVDAVDPMADLQEFLGKYRLPKK
stoichiometry N: 6
